± gives the uncertainty stated by the source.
B1: Protein S100-G, residues 1 to 79; numbered along this chain, P02633 (parent)
chain: MSAKKSPEELKGIFEKYAAKEGDPNQLSKEELKLLLQTEFPSLLKGPSTLDELFEELDKNGDGEVSFEEFQVLVKKISQ

Variants of: B1
Test: abundance fitness (aPCA) (normalised: wild type 0, dead -1); higher = more abundant; growth selection in yeast, the domain comes from the species named
Conditions: Bos taurus

Abundance fitness, by site and new letter:
E15: P -0.722 ± 0.08 | Q 0.024 ± 0.084 | S -0.009 ± 0.065 | T 0.065 ± 0.071 | V -0.044 ± 0.071 | W -0.048 ± 0.093 | Y 0.077 ± 0.086
K16: A -0.058 ± 0.069 | C -0.12 ± 0.086 | D -0.18 ± 0.091 | E -0.105 ± 0.085 | F -0.087 ± 0.087 | G -0.213 ± 0.07 | H -0.101 ± 0.093 | I -0.184 ± 0.091 | L -0.031 ± 0.062 | M -0.145 ± 0.08 | N -0.07 ± 0.093 | P -0.34 ± 0.076 | Q -0.122 ± 0.079 | R -0.082 ± 0.064 | S -0.042 ± 0.067 | T -0.087 ± 0.077 | V -0.179 ± 0.067 | W -0.176 ± 0.079 | Y -0.102 ± 0.092
Y17: A -0.129 ± 0.074 | C -0.295 ± 0.081 | D -1.1 ± 0.088 | E -0.425 ± 0.084 | F -0.008 ± 0.082 | G -0.521 ± 0.073 | H -0.067 ± 0.076 | K -0.519 ± 0.08 | L -0.332 ± 0.063 | M -0.168 ± 0.083 | N -0.433 ± 0.079 | P -1.25 ± 0.086 | Q -0.379 ± 0.081 | R -0.429 ± 0.066 | S -0.45 ± 0.063 | T -0.444 ± 0.077 | V -0.345 ± 0.071 | W -0.017 ± 0.082
A18: D -0.846 ± 0.09 | E -0.904 ± 0.099 | F -0.367 ± 0.088 | G -0.077 ± 0.08 | H -0.195 ± 0.08 | I -0.248 ± 0.085 | K -0.224 ± 0.085 | L -0.242 ± 0.064 | M -0.161 ± 0.092 | N -0.362 ± 0.08 | P -0.968 ± 0.073 | Q -0.248 ± 0.079 | R -0.161 ± 0.066 | S -0.055 ± 0.063 | T -0.15 ± 0.07 | V -0.115 ± 0.072 | W -0.516 ± 0.093 | Y -0.424 ± 0.085
A19: C -0.009 ± 0.08 | D -0.034 ± 0.088 | F -0.057 ± 0.077 | G 0.058 ± 0.078 | H -0.013 ± 0.083 | I -0.018 ± 0.081 | K 0.048 ± 0.09 | L 0.02 ± 0.064 | M -0.015 ± 0.086 | N -0.017 ± 0.081 | P -0.132 ± 0.074 | Q 0.028 ± 0.085 | R -0.073 ± 0.069 | S 0.007 ± 0.065 | T 0.143 ± 0.074 | V -0.062 ± 0.071 | W -0.111 ± 0.085
K20: A -0.119 ± 0.071 | C -0.263 ± 0.087 | D -0.05 ± 0.1 | E -0.119 ± 0.093 | F -0.159 ± 0.083 | G -0.01 ± 0.076 | I -0.098 ± 0.085 | L -0.067 ± 0.064 | M 0.053 ± 0.081 | N -0.012 ± 0.079 | Q 0.04 ± 0.09 | R 0.012 ± 0.066 | S -0.088 ± 0.065 | V -0.077 ± 0.075 | W -0.181 ± 0.084 | Y -0.112 ± 0.086
E21: A 0.003 ± 0.074 | C 0.011 ± 0.092 | D 0.074 ± 0.089 | F 0.085 ± 0.084 | G -0.034 ± 0.08 | H -0.014 ± 0.081 | I -0.027 ± 0.081 | N 0.039 ± 0.081 | P -0.35 ± 0.073 | Q -0.031 ± 0.078 | R -0.104 ± 0.063 | S -0.085 ± 0.064 | T -0.082 ± 0.071 | V -0.057 ± 0.07 | W -0.236 ± 0.082 | Y -0.058 ± 0.087
G22: C -0.264 ± 0.1 | D -0.167 ± 0.095 | E -0.17 ± 0.094 | F -0.431 ± 0.091 | H -0.103 ± 0.079 | I -0.291 ± 0.096 | K -0.037 ± 0.084 | L -0.319 ± 0.065 | M -0.19 ± 0.089 | N -0.147 ± 0.092 | P -0.19 ± 0.075 | Q -0.231 ± 0.078 | R -0.013 ± 0.068 | S -0.114 ± 0.064 | T -0.22 ± 0.072 | V -0.29 ± 0.075 | W -0.547 ± 0.087 | Y -0.204 ± 0.086
D23: A -0.009 ± 0.069 | C -0.064 ± 0.089 | E -0.053 ± 0.088 | F -0.079 ± 0.081 | G -0.091 ± 0.078 | H -0.074 ± 0.085 | K -0.157 ± 0.082 | L -0.034 ± 0.062 | M -0.104 ± 0.076 | N -0.013 ± 0.088 | P -0.139 ± 0.083 | Q -0.046 ± 0.078 | R -0.043 ± 0.069 | S -0.036 ± 0.067 | T 0.005 ± 0.073 | V -0.065 ± 0.068 | W -0.254 ± 0.083 | Y -0.081 ± 0.074
P24: A -0.093 ± 0.069 | C 0.029 ± 0.087 | D -0.125 ± 0.086 | E -0.061 ± 0.086 | F -0.197 ± 0.087 | G -0.031 ± 0.069 | H -0.031 ± 0.094 | I 0.024 ± 0.09 | K 0.046 ± 0.082 | L -0.113 ± 0.063 | M -0.066 ± 0.082 | Q 0.019 ± 0.089 | R -0.007 ± 0.066 | S 0.06 ± 0.065 | V -0.009 ± 0.071 | W -0.219 ± 0.084 | Y -0.075 ± 0.087
N25: A 0.014 ± 0.072 | C -0.014 ± 0.097 | D -0.052 ± 0.098

Source: the Human Domainome abundance scans (Beltran et al. 2025)
